Measured values taken from patent US20160024214A1 (Novo Nordisk, published 2016).
Where “and” joins values, the source holds several entries; their conditions need not be identical. Equal entries are not always repeated. Where two headings read alike, the source gives them in different places.

How the values were obtained:
[1] = target: T1, human NKG2D (hNKG2D) on the cell surface (human, UniProt P26718 1-216); assay: cell-based or functional assay
T1 construct: BaF/3 cells co-transfected with full-length NKG2D and DAP10, or native receptor on human NK, CD8+ and gamma-delta T cells of PBMC / whole blood; also called cell-surface NKG2D; NKG2D/DAP10-expressing BaF/3 cells
T1 chain: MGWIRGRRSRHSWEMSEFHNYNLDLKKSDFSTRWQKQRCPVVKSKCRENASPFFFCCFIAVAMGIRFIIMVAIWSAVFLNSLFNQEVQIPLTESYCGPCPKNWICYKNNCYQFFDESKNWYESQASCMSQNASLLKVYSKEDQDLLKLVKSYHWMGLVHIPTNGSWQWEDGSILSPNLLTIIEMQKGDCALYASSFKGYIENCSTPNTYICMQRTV

[2] = target: T1, human NKG2D (hNKG2D) on the cell surface; assay: flow cytometry, NKG2D/DAP10 BaF/3 cells, dose-response
[3] = target: T1, human NKG2D (hNKG2D) on the cell surface; assay: flow cytometry, NKG2D/DAP10 BaF/3 cells; antibody pre-incubated, then 1 µg hFc-MICA as competitor
[4] = target: T1, human NKG2D (hNKG2D) on the cell surface; assay: flow cytometry, NKG2D-expressing cells; ON72 first, then 16F16 as competitor (FIG. 9A legend)
[5] = target: T1, human NKG2D (hNKG2D) on the cell surface; assay: flow cytometry, NKG2D-expressing cells; ON72 first, then 16F16 as competitor
[6] = target: T1, human NKG2D (hNKG2D) on the cell surface; assay: flow cytometry, NKG2D/DAP10 BaF/3 cells; antibody pre-incubated, then 1 µg hFc-MICA as competitor
[7] = target: recombinant NKG2D-Fc (R&D Systems) (human) (UniProt P26718); assay: SPR (Biacore), antibody over immobilised NKG2D-Fc, Langmuir fit
[8] = target: T1, human NKG2D (hNKG2D) on the cell surface; assay: flow cytometry, NKG2D-expressing cells; 149810 first, then 16F16 as competitor
[9] = target: T1, human NKG2D (hNKG2D) on the cell surface; assay: flow cytometry, NKG2D-expressing cells; pre-incubation with 149810, then ON72 as competitor (post-incubation antibody)
[10] = target: T2, soluble hNKG2D fragment (residues 81-216 of SEQ ID NO:2) (human, UniProt P26718 81-216); assay: complex purified by gel filtration; X-ray crystal structure 3.15 Å
T2 construct: Homodimer in the crystal with two hzON72 Fab molecules
T2 sequence: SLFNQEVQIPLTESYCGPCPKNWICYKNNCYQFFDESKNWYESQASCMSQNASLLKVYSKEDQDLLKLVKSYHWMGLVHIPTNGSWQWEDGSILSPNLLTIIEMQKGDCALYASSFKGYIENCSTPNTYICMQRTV

## ON72 (murine anti-hNKG2D antibody, Beckman Coulter)
[1]
  % proliferation of PBMC, stimulation CD3 0.1 + CD28 + ON72 (immobilized): 22.9%
  % proliferation of PBMC, stimulation CD3 0.1 + ON72 (immobilized): 7.12%
  % proliferation of PBMC, stimulation CD3 0.3 + CD28 + ON72 (immobilized): 40.1%
  % proliferation of PBMC, stimulation CD3 0.3 + ON72 (immobilized): 28.4%
  EC50 (µg/ml), inhibition of NK-cell killing of ULPB3-expressing target cells (51Cr release): 0.065 µg/mL
  down-modulation of cell-surface NKG2D, NKG2D/DAP10 BaF/3 cells, overnight, 1 µg: 55%
  internalization of NKG2D at 1 h, NKG2D+ lymphocytes in whole blood, 0.1 µg/ml: 50 to 75%
  internalization of NKG2D at 24 h, NKG2D+ lymphocytes in whole blood, 0.1 µg/ml: 100%
[2]
  EC50: 0.062 µg/mL and 0.048 nM
[3]
  IC50: 0.02 nM
  full blockade of 1 µg MICA-Fc: 0.24 nM
[4]
  % of 16F16 binding prevented: 85%
[5]
  % of 16F16 binding blocked: 82%
[6]
  IC50: 0.019 µg/mL
  full blockade of 1 µg MICA-Fc: 0.54 µg/mL
[7]
  Kd: 0.17 nM
  koff: 0.00011 s⁻¹
  kon: 960000 M⁻¹ s⁻¹

## 149810 (murine anti-hNKG2D antibody, R&D Systems)
[8]
  % blockade of 16F16 binding: 50%
[2]
  EC50: 0.063 µg/mL and 0.042 nM
[9]
  Inhibition (%): 85%

B1: 16F16 (recombinantly expressed, IgG4 isotype) (antibody, V domains shown)
VH: EVQLVESGGGLVKPGGSLRLSCAASGFTFSSYSMNWVRQAPGKGLEWVSSITSSSSYIYYADSVKGRFTISRDNAKNSLYLQMNSLRAEDTAVYYCARDRRYFDWFPLDYRGQGTLVTVSS
VL: DIQMTQSPSSLSASVGDRVTITCRASQGISSWLAWYQQKPEKAPKSLIYAASSLQSGVPSRFSGSGSGTDFTLTISSLQPEDFATYYCQQYNGYPYTFGQGTKLEIKR
notes: Fully human anti-hNKG2D antibody from KM mouse hybridoma; variable regions cloned into human IgG4 framework, expressed in HEK293 cells, protein A purified; also called 16F16 IgG4; 16F16 (IgG4)
[2]
  EC50: 0.034 nM

B2: hzON72 Fab (humanized version of ON72 Fab fragment) (Fab, V domains shown)
VH: QVQLVQSGAEVKKPGASVKVSCKASGYTFTNYWMHWVRQAPGQGLEWMGEIDPSDIYTNYAQKFQGRVTMTRDTSTSTVYMELSSLRSEDTAVYYCARGIYDGYYVYGMDYWGQGTTVTVSS
VL: YIQMTQSPSSLSASVGDRVTITCRSSQDISNYLNWYQQKPGKAPKLLIYYTSRLHSGVPSRFSGSGSGTDFTFTISSLQPEDIATYYCQQGKTLPRTFGGGTKVEIKR
[10]
  binding result: binds
